Data: patent publication US20010010922

How the values were obtained:
[1] = test system: GST-BCL6ΔZFAla333,343 fusion protein
[2] = test system: GST-BCL6 fusion protein (full-length BCL-6)
[3] = test system: GST-BCL6ΔZFAla333 fusion protein

Recombinant ERK2 (New England Biolabs), sequence (P28482 2-360): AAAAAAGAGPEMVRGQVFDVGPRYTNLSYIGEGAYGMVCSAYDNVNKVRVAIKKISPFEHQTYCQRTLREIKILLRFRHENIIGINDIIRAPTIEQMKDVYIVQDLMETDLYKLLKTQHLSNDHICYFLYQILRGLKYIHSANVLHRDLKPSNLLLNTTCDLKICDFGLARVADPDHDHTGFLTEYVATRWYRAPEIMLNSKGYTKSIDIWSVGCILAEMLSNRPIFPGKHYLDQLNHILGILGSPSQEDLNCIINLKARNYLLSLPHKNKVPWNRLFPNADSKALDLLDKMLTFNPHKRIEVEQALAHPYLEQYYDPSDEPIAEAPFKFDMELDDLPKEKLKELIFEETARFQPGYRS

Recombinant ERK2 (New England Biolabs)
phosphorylation in ERK2 kinase assay in vitro ([gamma-32P]-ATP) [1]: phosphorylated at much lower levels than wild type BCL-6, with BCL-6Ala333,343 displaying the lowest levels
phosphorylation in ERK2 kinase assay in vitro ([gamma-32P]-ATP) [2]: purified recombinant MAPK (ERK-2) can phosphorylate GST-BCL-6 fusion proteins in vitro
phosphorylation in ERK2 kinase assay in vitro ([gamma-32P]-ATP) [3]: phosphorylated at much lower levels than wild type BCL-6
